Earlier results on 2 substances are cited in publication PMC7019049.

In data set [1] the target is MIG6 peptide (Homo sapiens) (UniProt Q9UJM3).
In the next data set the target is pepJIP1 (Homo sapiens) (UniProt Q9UQF2).
Sequence of UniProt Q9UQF2 (Q9UQF2 whole entry): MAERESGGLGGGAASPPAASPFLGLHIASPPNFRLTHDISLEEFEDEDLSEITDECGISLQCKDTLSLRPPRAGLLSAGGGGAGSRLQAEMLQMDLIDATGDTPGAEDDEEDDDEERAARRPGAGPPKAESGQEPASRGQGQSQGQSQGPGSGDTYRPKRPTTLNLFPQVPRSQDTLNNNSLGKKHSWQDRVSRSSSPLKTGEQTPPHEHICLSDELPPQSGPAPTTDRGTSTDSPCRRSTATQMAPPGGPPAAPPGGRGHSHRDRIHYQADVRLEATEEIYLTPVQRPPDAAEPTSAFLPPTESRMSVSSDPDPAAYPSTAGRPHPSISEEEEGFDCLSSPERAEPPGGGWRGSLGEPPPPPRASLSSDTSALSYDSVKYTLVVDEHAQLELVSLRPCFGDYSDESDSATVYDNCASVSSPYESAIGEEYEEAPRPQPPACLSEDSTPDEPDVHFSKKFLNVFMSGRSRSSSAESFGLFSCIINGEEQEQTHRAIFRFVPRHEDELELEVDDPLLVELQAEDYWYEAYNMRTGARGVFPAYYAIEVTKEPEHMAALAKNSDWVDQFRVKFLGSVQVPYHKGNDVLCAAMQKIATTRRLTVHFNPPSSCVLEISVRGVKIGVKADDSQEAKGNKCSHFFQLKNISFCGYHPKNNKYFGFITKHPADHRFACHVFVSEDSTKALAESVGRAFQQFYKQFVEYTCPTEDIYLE

Sequence of UniProt Q9UJM3 (Q9UJM3 2-462): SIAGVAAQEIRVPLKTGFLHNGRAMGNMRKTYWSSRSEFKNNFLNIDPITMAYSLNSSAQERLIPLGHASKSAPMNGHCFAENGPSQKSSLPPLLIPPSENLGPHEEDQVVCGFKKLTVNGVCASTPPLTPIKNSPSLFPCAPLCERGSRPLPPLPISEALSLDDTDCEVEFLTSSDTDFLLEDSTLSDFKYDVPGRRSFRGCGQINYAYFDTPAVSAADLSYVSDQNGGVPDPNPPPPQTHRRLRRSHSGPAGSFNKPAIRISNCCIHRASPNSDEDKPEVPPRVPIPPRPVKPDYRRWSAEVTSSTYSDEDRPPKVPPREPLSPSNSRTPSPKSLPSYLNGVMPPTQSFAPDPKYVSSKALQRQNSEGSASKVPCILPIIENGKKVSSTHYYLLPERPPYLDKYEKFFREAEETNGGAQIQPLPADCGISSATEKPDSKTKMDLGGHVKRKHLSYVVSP

As for “EGFR kinase domain (from UniProt P00533)”, the Kd in data set [1] is 13 µM.

Turning to MAPK8 (JNK1) (from UniProt P45983), the Kd with pepJIP1 (Homo sapiens) was 0.42 µM.

The term Kd denotes the constant that tells how readily two partners part at equilibrium.
